Test results taken from PMC2791859.

What was measured:
[1] = molecular target: FcγRIa, recombinant extracellular domain (UniProt P12314); test: SPR; Biacore 3000; extracellular domain of FcγRIa immobilized covalently or through enzymatic, site-directed biotinylation; antibody as analyte; kinetic analysis at pH 7.4
[2] = molecular target: FcRn, recombinant extracellular domain (UniProt P55899); test: SPR; Biacore 3000; extracellular domain of FcRn immobilized covalently or through enzymatic, site-directed biotinylation; antibody as analyte; steady-state analysis at pH 6.0
UniProt P55899, sequence (P55899 whole entry, looked up, the tested form may be a part): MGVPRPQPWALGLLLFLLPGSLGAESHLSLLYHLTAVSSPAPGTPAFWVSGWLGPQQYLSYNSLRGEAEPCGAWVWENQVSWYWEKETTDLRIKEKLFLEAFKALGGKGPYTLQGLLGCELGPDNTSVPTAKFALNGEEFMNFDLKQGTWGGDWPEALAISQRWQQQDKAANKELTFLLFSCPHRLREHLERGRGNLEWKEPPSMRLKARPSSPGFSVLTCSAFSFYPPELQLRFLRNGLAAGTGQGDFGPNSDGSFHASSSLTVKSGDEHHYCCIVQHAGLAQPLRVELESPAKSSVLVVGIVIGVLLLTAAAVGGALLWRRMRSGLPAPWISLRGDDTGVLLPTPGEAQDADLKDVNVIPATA

UniProt P12314, sequence (P12314 16-292): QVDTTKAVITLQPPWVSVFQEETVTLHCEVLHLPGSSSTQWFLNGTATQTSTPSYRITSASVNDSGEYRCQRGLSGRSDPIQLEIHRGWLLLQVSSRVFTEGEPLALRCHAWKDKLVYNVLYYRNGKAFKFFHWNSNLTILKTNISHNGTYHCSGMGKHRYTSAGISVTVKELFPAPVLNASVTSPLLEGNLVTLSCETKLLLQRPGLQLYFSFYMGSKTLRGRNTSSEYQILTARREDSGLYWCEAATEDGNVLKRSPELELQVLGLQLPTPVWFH

Substance: human IgG1 antibody Variant FS (F241S F243S)
- Kd [1]: 74 nM
- koff [1]: 0.0021 s⁻¹
- kon [1]: 29000 M⁻¹ s⁻¹
- Kd [2]: 2700 nM
